Test results taken from doi:10.1101/304022 (bioRxiv, 2018).
Changes are numbered by the printed parent chain.

B1: STIM1 23-213 (luminal domain of human stromal interaction molecule-1), wild type, unmodified (1 mM DTT) (domain or fragment, UniProt Q13586-1 23-213, looked up)
chain: LSHSHSEKATGTSSGANSEESTAAEFCRIDKPLCHSEDEKLSFEAVRNIHKLMDDDANGDVDVEESDEFLREDLNYHDPTVKHSTFHGEDKLISVEDLWKAWKSSEVYNWTVDEVVQWLITYVELPQYEETFRKLQLSGHAMPRLAVTNTTMTGTVLKMTDRSHRQKLQLKALDTVLFGPPLLTRHNHLKD
B2: Cys49Ser/Cys56Ser double mutant STIM1 23-213 (domain or fragment, human, UniProt Q13586-1 23-213, looked up)
chain: B1 chain with C27S, C34S

Molecular target: the molecule itself
Experiment: dynamic light scattering

Row | Protein | binding result
1 | B1 | binds
2 | B2 | binds
